Assay [1] concerns the target human SETD3 (residues 1-497) (human) (UniProt Q86TU7). Put plainly: ITC.
Assay [2] shares this target. Put plainly: ITC. The source holds these as a separate data set. For orientation: ITC needs no label: the signal is the heat of the interaction.

Like-named read-outs stand apart in the source and are kept apart here.

“β-actin peptide, residues 66-81, with 3-pyridylalanine at position 73 (βA-3PyrAla73) (from UniProt P60709 66-81)”: the Kd in assay [1] was determined as 44.4 µM; in assay [2] it was 48.5 µM.

As for “β-actin peptide, residues 66-81, with 4-pyridylalanine at position 73 (βA-4PyrAla73) (from UniProt P60709 66-81)”, the Kd in assay [1] amounted to 3.1 µM; in assay [2] it was 4.9 µM.

As for “β-actin peptide, residues 66-81, with ornithine at position 73 (βA-Orn73) (from UniProt P60709 66-81)”, the Kd in assay [1] came out at 7.2 µM; in assay [2] it was 39.2 µM.

Turning to “β-actin peptide, residues 66-81, with β-triazolylalanine at position 73 (βA-βTriaA73) (from UniProt P60709 66-81)”, the Kd in assay [1] was found to be 0.8 µM; in assay [2], 4 µM.

The term Kd denotes a measure of binding affinity in units of concentration. Read a low Kd as tighter binding.

The values above are taken from publication doi:10.1101/2021.12.30.474520.
